Measurements from paper PMC7549792.

Biological target: Human serum albumin domain I (human)
Experiment: SEC; analytical Superdex 75 10/300 calibrated with known proteins; 100 uL of purified DomI at 90 ug/mL; Tris 50 mM, pH 8, 100 mM NaCl; 0.8 mL/min; dimer non-covalent by reducing and non-reducing SDS-PAGE

Human serum albumin domain I (domain or fragment)
stoichiometry N: 2
